Measured values from the supplement of paper PMC11316812.
± gives the standard deviation of the averaged measurements.

How the values were obtained:
MCF7 = assay: percentage of EdU-negative (G0-arrested) nuclei per well, 72 h; higher = more G0 arrest; settings: reference: sequence is the full UniProt precursor, the tested protein was the secreted form or ectodomain
hTERT-HMEC = assay: as above; settings: reference: sequence is the full UniProt precursor, the tested protein was the secreted form or ectodomain
[1] = protein concentration 0.03108 µM
[2] = protein concentration 0.3108 µM
[3] = protein concentration 0.0225 µM
[4] = protein concentration 0.01175 µM
[5] = protein concentration 0.1175 µM
[6] = protein concentration 0.02075 µM
[7] = protein concentration 0.2075 µM
[8] = protein concentration 0.03125 µM
[9] = protein concentration 0.3125 µM
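Note: secreted proteins added to cultured cells, EdU pulse at the end, nuclei found by Hoechst imaging, EdU status from nuclear versus surrounding ring intensity ratio, PBS as neutral control.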

Sequence: MEEGQYSEIEELPRRRCCRRGTQIVLLGLVTAALWAGLLTLLLLWHWDTTQSLKQLEERAARNVSQVSKNLESHHGDQMAQKSQSTQISQELEELRAEQQRLKSQDLELSWNLNGLQADLSSFKSQELNERNEASDLLERLREEVTKLRMELQVSSGFVCNTCPEKWINFQRKCYYFGKGTKQWVHARYACDDMEGQLVSIHSPEEQDFLTKHASHTGSWIGLRNLDLKGEFIWVDGSHVDYSNWAPGEPTSRSQGEDCVMMRGSGRWNDAFCDRKLGAWVCDRLATCTPPASEGSAESMGPDSRPDPDGRLPTPSAPLHS
- percentage of EdU-negative (MCF7; protein concentration 0.005 µM): 23.6 ± 0.92%
- percentage of EdU-negative (MCF7; protein concentration 0.05 µM): 23.9 ± 0.99%
- percentage of EdU-negative (hTERT-HMEC; protein concentration 0.005 µM): 5.26 ± 0.5%
- percentage of EdU-negative (hTERT-HMEC; protein concentration 0.05 µM): 5.97 ± 0.12%

Sequence: MEESVVRPSVFVVDGQTDIPFTRLGRSHRRQSCSVARVGLGLLLLLMGAGLAVQGWFLLQLHWRLGEMVTRLPDGPAGSWEQLIQERRSHEVNPAAHLTGANSSLTGSGGPLLWETQLGLAFLRGLSYHDGALVVTKAGYYYIYSKVQLGGVGCPLGLASTITHGLYKRTPRYPEELELLVSQQSPCGRATSSSRVWWDSSFLGGVVHLEAGEKVVVRVLDERLVRLRDGTRSYFGAFMV
- percentage of EdU-negative (MCF7; protein concentration 0.012 µM): 23.7 ± 1.9%
- percentage of EdU-negative (MCF7; protein concentration 0.12 µM): 25.5 ± 0.62%
- percentage of EdU-negative (hTERT-HMEC; protein concentration 0.012 µM): 6.38 ± 0.16%
- percentage of EdU-negative (hTERT-HMEC; protein concentration 0.12 µM): 15.2 ± 1.9%

Sequence: MEFLWAPLLGLCCSLAAADRHTVFWNSSNPKFRNEDYTIHVQLNDYVDIICPHYEDHSVADAAMEQYILYLVEHEEYQLCQPQSKDQVRWQCNRPSAKHGPEKLSEKFQRFTPFTLGKEFKEGHSYYYISKPIHQHEDRCLRLKVTVSGKITHSPQAHDNPQEKRLAADDPEVRVLHSIGHSAAPRLFPLAWTVLLLPLLLLQTP
- percentage of EdU-negative (MCF7; [1]): 24.521 ± 0.0085%
- percentage of EdU-negative (MCF7; [2]): 24.81 ± 0.061%
- percentage of EdU-negative (hTERT-HMEC; [1]): 6.23 ± 0.24%
- percentage of EdU-negative (hTERT-HMEC; [2]): 7.2445 ± 0.004%

Sequence: MEGAGPRGAGPARRRGAGGPPSPLLPSLLLLLLLWMLPDTVAPQELNPRGRNVCRAPGSQVPTCCAGWRQQGDECGIAVCEGNSTCSENEVCVRPGECRCRHGYFGANCDTKCPRQFWGPDCKELCSCHPHGQCEDVTGQCTCHARRWGARCEHACQCQHGTCHPRSGACRCEPGWWGAQCASACYCSATSRCDPQTGACLCHAGWWGRSCNNQCACNSSPCEQQSGRCQCRERTFGARCDRYCQCFRGRCHPVDGTCACEPGYRGKYCREPCPAGFYGLGCRRRCGQCKGQQPCTVAEGRCLTCEPGWNGTKCDQPCATGFYGEGCSHRCPPCRDGHACNHVTGKCTRCNAGWIGDRCETKCSNGTYGEDCAFVCADCGSGHCDFQSGRCLCSPGVHGPHCNVTCPPGLHGADCAQACSCHEDTCDPVTGACHLETNQRKGVMGAGALLVLLVCLLLSLLGCCCACRGKDPTRRPRPRRELSLGRKKAPHRLCGRFSRISMKLPRIPLRRQKLPKVVVAHHDLDNTLNCSFLEPPSGLEQPSPSWSSRASFSSFDTTDEGPVYCVPHEEAPAESRDPEVPTVPAEAPAPSPVPLTTPASAEEAIPLPASSDSERSASSVEGPGGALYARVARREARPARARGEIGGLSLSPSPERRKPPPPDPATKPKVSWIHGKHSAAAAGRAPSPPPPGSEAAPSPSKRKRTPSDKSAHTVEHGSPRTRDPTPRPPGLPEEATALAAPSPPRARARGRGPGLLEPTDAGGPPRSAPEAASMLAAELRGKTRSLGRAEVALGAQGPREKPAPPQKAKRSVPPASPARAPPATETPGPEKAATDLPAPETPRKKTPIQKPPRKKSREAAGELGRAGAPTL [Q96GP6]
- percentage of EdU-negative (MCF7; [3]): 25.7 ± 1.2%
- percentage of EdU-negative (MCF7; protein concentration 0.225 µM): 36.9 ± 0.76%
- percentage of EdU-negative (hTERT-HMEC; [3]): 3.85 ± 0.62%
- percentage of EdU-negative (hTERT-HMEC; protein concentration 0.225 µM): 18.5 ± 6.1%

Sequence: MEGGDQSEEEPRERSQAGGMGTLWSQESTPEERLPVEGSRPWAVARRVLTAILILGLLLCFSVLLFYNFQNCGPRPCETSVCLDLRDHYLASGNTSVAPCTDFFSFACGRAKETNNSFQELATKNKNRLRRILEVQNSWHPGSGEEKAFQFYNSCMDTLAIEAAGTGPLRQVIEELGGWRISGKWTSLNFNRTLRLLMSQYGHFPFFRAYLGPHPASPHTPVIQIDQPEFDVPLKQDQEQKIYAQIFREYLTYLNQLGTLLGGDPSKVQEHSSLSISITSRLFQFLRPLEQRRAQGKLFQMVTIDQLKEMAPAIDWLSCLQATFTPMSLSPSQSLVVHDVEYLKNMSQLVEEMLLKQRDFLQSHMILGLVVTLSPALDSQFQEARRKLSQKLRELTEQPPMPARPRWMKCVEETGTFFEPTLAALFVREAFGPSTRSAAMKLFTAIRDALITRLRNLPWMNEETQNMAQDKVAQLQVEMGASEWALKPELARQEYNDIQLGSSFLQSVLSCVRSLRARIVQSFLQPHPQHRWKVSPWDVNAYYSVSDHVVVFPAGLLQPPFFHPGYPRAVNFGAAGSIMAHELLHIFYQLLLPGGCLACDNHALQEAHLCLKRHYAAFPLPSRTSFNDSLTFLENAADVGGLAIALQAYSKRLLRHHGETVLPSLDLSPQQIFFRSYAQVMCRKPSPQDSHDTHSPPHLRVHGPLSSTPAFARYFRCARGALLNPSSRCQLW
- percentage of EdU-negative (MCF7; [3]): 26.89 ± 0.16%
- percentage of EdU-negative (MCF7; protein concentration 0.225 µM): 27.1 ± 3.5%
- percentage of EdU-negative (hTERT-HMEC; [3]): 4.88 ± 0.16%
- percentage of EdU-negative (hTERT-HMEC; protein concentration 0.225 µM): 6.43 ± 0.18%

Sequence: MEIPVPVQPSWLRRASAPLPGLSAPGRLFDQRFGEGLLEAELAALCPTTLAPYYLRAPSVALPVAQVPTDPGHFSVLLDVKHFSPEEIAVKVVGEHVEVHARHEERPDEHGFVAREFHRRYRLPPGVDPAAVTSALSPEGVLSIQAAPASAQAPPPAAAK
- percentage of EdU-negative (MCF7; [3]): 27 ± 0.81%
- percentage of EdU-negative (MCF7; protein concentration 0.225 µM): 25.6 ± 1.1%
- percentage of EdU-negative (hTERT-HMEC; [3]): 4.93 ± 0.29%
- percentage of EdU-negative (hTERT-HMEC; protein concentration 0.225 µM): 5.53 ± 0.95%

Sequence: MEIVWEVLFLLQANFIVCISAQQNSPKIHEGWWAYKEVVQGSFVPVPSFWGLVNSAWNLCSVGKRQSPVNIETSHMIFDPFLTPLRINTGGRKVSGTMYNTGRHVSLRLDKEHLVNISGGPMTYSHRLEEIRLHFGSEDSQGSEHLLNGQAFSGEVQLIHYNHELYTNVTEAAKSPNGLVVVSIFIKVSDSSNPFLNRMLNRDTITRITYKNDAYLLQGLNIEELYPETSSFITYDGSMTIPPCYETASWIIMNKPVYITRMQMHSLRLLSQNQPSQIFLSMSDNFRPVQPLNNRCIRTNINFSLQGKDCPNNRAQKLQYRVNEWLLK [Q9NS85]
- percentage of EdU-negative (MCF7; [3]): 25.5 ± 2.5%
- percentage of EdU-negative (MCF7; protein concentration 0.225 µM): 27.9 ± 0.69%
- percentage of EdU-negative (hTERT-HMEC; [3]): 5.049 ± 0.027%
- percentage of EdU-negative (hTERT-HMEC; protein concentration 0.225 µM): 8.51 ± 1.1%

Sequence: MEKILFYLFLIGIAVKAQICPKRCVCQILSPNLATLCAKKGLLFVPPNIDRRTVELRLADNFVTNIKRKDFANMTSLVDLTLSRNTISFITPHAFADLRNLRALHLNSNRLTKITNDMFSGLSNLHHLILNNNQLTLISSTAFDDVFALEELDLSYNNLETIPWDAVEKMVSLHTLSLDHNMIDNIPKGTFSHLHKMTRLDVTSNKLQKLPPDPLFQRAQVLATSGIISPSTFALSFGGNPLHCNCELLWLRRLSREDDLETCASPPLLTGRYFWSIPEEEFLCEPPLITRHTHEMRVLEGQRATLRCKARGDPEPAIHWISPEGKLISNATRSLVYDNGTLDILITTVKDTGAFTCIASNPAGEATQIVDLHIIKLPHLLNSTNHIHEPDPGSSDISTSTKSGSNTSSSNGDTKLSQDKIVVAEATSSTALLKFNFQRNIPGIRMFQIQYNGTYDDTLVYRMIPPTSKTFLVNNLAAGTMYDLCVLAIYDDGITSLTATRVVGCIQFTTEQDYVRCHFMQSQFLGGTMIIIIGGIIVASVLVFIIILMIRYKVCNNNGQHKVTKVSNVYSQTNGAQIQGCSVTLPQSVSKQAVGHEENAQCCKATSDNVIQSSETCSSQDSSTTTSALPPSWTSSTSVSQKQKRKTGTKPSTEPQNEAVTNVESQNTNRNNSTALQLASRPPDSVTEGPTSKRAHIKPNALLTNVDQIVQETQRLELI [G3V364]
- percentage of EdU-negative (MCF7; [4]): 25.9 ± 2.7%
- percentage of EdU-negative (MCF7; [5]): 27.1 ± 1.2%
- percentage of EdU-negative (hTERT-HMEC; [4]): 4.44 ± 0.44%
- percentage of EdU-negative (hTERT-HMEC; [5]): 6.29 ± 1.1%

Sequence: MEKILILLLVALSVAYAAPGPRGIIINLENGELCMNSAQCKSNCCQHSSALGLARCTSMASENSECSVKTLYGIYYKCPCERGLTCEGDKTIVGSITNTNFGICHDAGRSKQ
- percentage of EdU-negative (MCF7; [3]): 23.9 ± 2.4%
- percentage of EdU-negative (MCF7; protein concentration 0.225 µM): 28.37 ± 0.035%
- percentage of EdU-negative (hTERT-HMEC; [3]): 5.19 ± 0.81%
- percentage of EdU-negative (hTERT-HMEC; protein concentration 0.225 µM): 6.85 ± 1.2%

Sequence: MEKIPVSAFLLLVALSYTLARDTTVKPGAKKDTKDSRPKLPQTLSRGWGDQLIWTQTYEEALYKSKTSNKPLMIIHHLDECPHSQALKKVFAENKEIQKLAEQFVLLNLVYETTDKHLSPDGQYVPRIMFVDPSLTVRADITGRYSNRLYAYEPADTALLLDNMKKALKLLKTEL
- percentage of EdU-negative (MCF7; [3]): 25.2 ± 1.5%
- percentage of EdU-negative (MCF7; protein concentration 0.225 µM): 25.7 ± 0.74%
- percentage of EdU-negative (hTERT-HMEC; [3]): 4.87 ± 0.93%
- percentage of EdU-negative (hTERT-HMEC; protein concentration 0.225 µM): 7.88 ± 0.32%

Sequence: MEKKWKYCAVYYIIQIHFVKGVWEKTVNTEENVYATLGSDVNLTCQTQTVGFFVQMQWSKVTNKIDLIAVYHPQYGFYCAYGRPCESLVTFTETPENGSKWTLHLRNMSCSVSGRYECMLVLYPEGIQTKIYNLLIQTHVTADEWNSNHTIEIEINQTLEIPCFQNSSSKISSEFTYAWSVENSSTDSWVLLSKGIKEDNGTQETLISQNHLISNSTLLKDRVKLGTDYRLHLSPVQIFDDGRKFSCHIRVGPNKILRSSTTVKVFAKPEIPVIVENNSTDVLVERRFTCLLKNVFPKANITWFIDGSFLHDEKEGIYITNEERKGKDGFLELKSVLTRVHSNKPAQSDNLTIWCMALSPVPGNKVWNISSEKITFLLGSEISSTDPPLSVTESTLDTQPSPASSVSPARYPATSSVTLVDVSALRPNTTPQPSNSSMTTRGFNYPWTSSGTDTKKSVSRIPSETYSSSPSGAGSTLHDNVFTSTARAFSEVPTTANGSTKTNHVHITGIVVNKPKDGMSWPVIVAALLFCCMILFGLGVRKWCQYQKEIMERPPPFKPPPPPIKYTCIQEPNESDLPYHEMETL
- percentage of EdU-negative (MCF7; [6]): 25.5 ± 0.86%
- percentage of EdU-negative (MCF7; [7]): 29.5 ± 0.78%
- percentage of EdU-negative (hTERT-HMEC; [6]): 4.86 ± 1%
- percentage of EdU-negative (hTERT-HMEC; [7]): 12.1 ± 1.3%

Sequence: MEKLLCFLVLTSLSHAFGQTDMSRKAFVFPKESDTSYVSLKAPLTKPLKAFTVCLHFYTELSSTRGYSIFSYATKRQDNEILIFWSKDIGYSFTVGGSEILFEVPEVTVAPVHICTSWESASGIVEFWVDGKPRVRKSLKKGYTVGAEASIILGQEQDSFGGNFEGSQSLVGDIGNVNMWDFVLSPDEINTIYLGGPFSPNVLNWRALKYEVQGEVFTKPQLWP
- percentage of EdU-negative (MCF7; [8]): 24.1 ± 2.6%
- percentage of EdU-negative (MCF7; [9]): 25.3 ± 0.79%
- percentage of EdU-negative (hTERT-HMEC; [8]): 4.41 ± 0.15%
- percentage of EdU-negative (hTERT-HMEC; [9]): 5.8 ± 1.1%
